{"source": "paper PMC5429092", "origin": "cited, not measured here", "biological_target": "PP1 (Homo sapiens) (UniProt P62136)", "sequence (P62136 2-330)": "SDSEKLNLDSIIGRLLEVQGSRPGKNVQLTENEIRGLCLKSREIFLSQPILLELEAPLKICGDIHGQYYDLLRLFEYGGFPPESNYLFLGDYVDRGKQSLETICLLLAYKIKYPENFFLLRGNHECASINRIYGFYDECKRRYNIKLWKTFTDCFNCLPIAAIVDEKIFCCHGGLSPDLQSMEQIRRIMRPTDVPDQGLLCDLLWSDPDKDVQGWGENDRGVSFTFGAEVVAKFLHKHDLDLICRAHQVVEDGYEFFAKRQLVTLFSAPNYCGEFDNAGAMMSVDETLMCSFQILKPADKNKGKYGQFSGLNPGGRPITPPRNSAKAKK", "assay": "ITC"}
{"substance": "PPP1R15A (from UniProt O75807)", "values": [{"measurement": "Kd", "value": 62, "unit": "nM"}]}
